Consider two molecules from PMC9233711, “Wiskott-Aldrich syndrome protein forms nuclear condensates and regulates alternative splicing” (Nature Communications, 2022).

Test [1] addresses T1, recombinant WASP, full-length (1-502 a.a.) with a GST tag at the N-terminus (human, UniProt P42768 1-502).
T1 construct: Wiskott-Aldrich syndrome protein (WASP), human, full-length protein, 1-502 a.a; source: bought: Abnova (in vitro wheat germ expression system, purified by Glutathione Sepharose 4 Fast Flow); not shown: GST, N-terminal, kept
T1 sequence (looked up): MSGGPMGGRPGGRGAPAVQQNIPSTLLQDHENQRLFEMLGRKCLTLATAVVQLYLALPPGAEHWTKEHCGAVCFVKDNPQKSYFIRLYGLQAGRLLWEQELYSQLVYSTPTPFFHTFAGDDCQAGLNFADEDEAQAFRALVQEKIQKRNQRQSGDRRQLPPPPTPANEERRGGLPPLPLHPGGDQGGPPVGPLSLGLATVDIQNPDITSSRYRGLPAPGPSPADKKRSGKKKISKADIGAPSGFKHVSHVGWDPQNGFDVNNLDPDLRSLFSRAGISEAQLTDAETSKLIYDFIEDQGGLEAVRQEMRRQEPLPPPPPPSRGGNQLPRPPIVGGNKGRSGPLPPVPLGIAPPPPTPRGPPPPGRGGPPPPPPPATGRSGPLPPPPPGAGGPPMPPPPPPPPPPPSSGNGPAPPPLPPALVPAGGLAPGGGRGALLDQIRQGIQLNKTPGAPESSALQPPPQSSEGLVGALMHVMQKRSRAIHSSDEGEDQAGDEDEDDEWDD
The test can be described thus: MST; Monolith NT.115; SRSF2 labelled with RED-tris-NTA at 1 nM, WASP titrated 90 pM to 3 µM; 50 mM HEPES pH 7.5, 10 mM MgCl2, 100 mM KCl, 0.1 mg/ml BSA, 5% glycerol, 1 mM DTT. The conditions noted are these: both partners purified.

Test [2] deals with T2, recombinant human full-length SRSF2, N-terminally 8X histidine- and SUMO-tagged and C-terminus Strep-tagged (human, UniProt Q01130 1-221, RED-tris-NTA dye on the His tag).
T2 chain: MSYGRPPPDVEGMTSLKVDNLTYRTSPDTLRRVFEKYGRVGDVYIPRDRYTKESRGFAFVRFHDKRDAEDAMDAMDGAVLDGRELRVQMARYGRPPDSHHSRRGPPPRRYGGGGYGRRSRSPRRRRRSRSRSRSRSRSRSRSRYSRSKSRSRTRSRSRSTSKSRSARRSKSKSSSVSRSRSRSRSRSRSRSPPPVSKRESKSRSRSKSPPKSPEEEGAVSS
Nature of the test: MST.

B1: recombinant human full-length SRSF2, N-terminally 8X histidine- and SUMO-tagged and C-terminus Strep-tagged (natural protein, UniProt Q01130 1-221, looked up)
chain: MSYGRPPPDVEGMTSLKVDNLTYRTSPDTLRRVFEKYGRVGDVYIPRDRYTKESRGFAFVRFHDKRDAEDAMDAMDGAVLDGRELRVQMARYGRPPDSHHSRRGPPPRRYGGGGYGRRSRSPRRRRRSRSRSRSRSRSRSRSRYSRSKSRSRTRSRSRSTSKSRSARRSKSKSSSVSRSRSRSRSRSRSRSPPPVSKRESKSRSRSKSPPKSPEEEGAVSS
modifications: RED-tris-NTA dye on the His tag
notes: No tag cleavage step is described in the purification, so SUMO and Strep were probably still on the protein; The MST methods call it His6-tagged, the expression methods 8X histidine; also called His6-tagged SRSF2; recombinant SRSF2; source: E. coli BL21 (DE3), purified (HisTrap HP, dialysis); not shown: His8, N-terminal, kept
Turning to B1, in test [1], the binding result is on record as “binds”.

B2: recombinant WASP, full-length (1-502 a.a.) with a GST tag at the N-terminus (natural protein)
chain: MSGGPMGGRPGGRGAPAVQQNIPSTLLQDHENQRLFEMLGRKCLTLATAVVQLYLALPPGAEHWTKEHCGAVCFVKDNPQKSYFIRLYGLQAGRLLWEQELYSQLVYSTPTPFFHTFAGDDCQAGLNFADEDEAQAFRALVQEKIQKRNQRQSGDRRQLPPPPTPANEERRGGLPPLPLHPGGDQGGPPVGPLSLGLATVDIQNPDITSSRYRGLPAPGPSPADKKRSGKKKISKADIGAPSGFKHVSHVGWDPQNGFDVNNLDPDLRSLFSRAGISEAQLTDAETSKLIYDFIEDQGGLEAVRQEMRRQEPLPPPPPPSRGGNQLPRPPIVGGNKGRSGPLPPVPLGIAPPPPTPRGPPPPGRGGPPPPPPPATGRSGPLPPPPPGAGGPPMPPPPPPPPPPPSSGNGPAPPPLPPALVPAGGLAPGGGRGALLDQIRQGIQLNKTPGAPESSALQPPPQSSEGLVGALMHVMQKRSRAIHSSDEGEDQAGDEDEDDEWDD
Consider B2, for which the dissociation constant (Kd) (in general, the equilibrium constant for the complex coming apart) in test [2] turned out to be 211 nM.
